From PMC3507626, “The Crystal Structure of the Intact E. coli RelBE Toxin-Antitoxin Complex Provides the Structural Basis for Conditional Cooperativity” (Structure(London, England:1993), 2012)

How the values were obtained:
[1] = target: T1, Escherichia coli RelE R81A (untagged, full-length toxin) (Escherichia coli, UniProt P0C077 1-95, R81A); assay: crystal structure; RelB2E2 reconstituted from purified RelB and RelE R81A; crystals at 4°C, 1.6-2.0 M ammonium sulfate, 0.1 M Na acetate pH 4.6; space group P6(1)22; 2.8 Å; settings: both partners purified
T1 construct: RelE toxin of the relBE locus, Escherichia coli, 95 residues, R81A active-site mutant; also called R81A active-site mutant
T1 sequence (looked up): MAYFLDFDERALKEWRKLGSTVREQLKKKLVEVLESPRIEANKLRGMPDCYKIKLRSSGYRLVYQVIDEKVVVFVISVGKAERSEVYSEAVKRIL

[2] = target: the molecule itself; assay: not stated; isolated RelB and isolated RelE in solution; data not shown

B1: Escherichia coli RelB (untagged, intact antitoxin) (natural protein, UniProt P0C079 1-79, looked up)
chain: MGSINLRIDDELKARSYAALEKMGVTPSEALRLMLEYIADNERLPFKQTLLSDEDAELVEIVKERLRNPKPVRVTLDEL
notes: RelB antitoxin of the relBE locus, Escherichia coli, 79 residues (residues 2-79 of 79 seen in the structure); Untagged; Details of purification are in the Supplemental Experimental Procedures; source: E. coli, plasmid pSC2524HE encoding His-tagged RelE R81A and untagged RelB; purified by denaturation, ion exchange, gel filtration
B1 was tested, and the binding result [1] was “binds” and the “stoichiometry N” value [2] was 4.
